B1: Q4W (designed binder)
chain: MTLWELLREEALRRAEAEAFRYALELLAEKFPEQKEYLLDLAEEIESQIRSLSGVDVEDVRKFLDKEWAWVKELLAEHPAELAEVEAARAARLAELRAEVEAKVAA
B2: A88I (designed binder)
chain: B1 chain with W4Q, A88I
B3: I49N (designed binder)
chain: B1 chain with W4Q, I49N
B4: L82P (designed binder)
chain: B1 chain with W4Q, L82P
B5: L26C (designed binder)
chain: B1 chain with W4Q, L26C
B6: Q48V (designed binder)
chain: B1 chain with W4Q, Q48V
B7: E77I (designed binder)
chain: B1 chain with W4Q, E77I
B8: R21T (designed binder)
chain: B1 chain with W4Q, R21T
B9: E25C (designed binder)
chain: B1 chain with W4Q, E25C
B10: Y37E (designed binder)
chain: B1 chain with W4Q, Y37E
B11: E10F (designed binder)
chain: B1 chain with W4Q, E10F
B12: E46R (designed binder)
chain: B1 chain with W4Q, E46R
B13: A76V (designed binder)
chain: B1 chain with W4Q, A76V
B14: L41A (designed binder)
chain: B1 chain with W4Q, L41A
B15: K72G (designed binder)
chain: B1 chain with W4Q, K72G
B16: V100Y (designed binder)
chain: B1 chain with W4Q, V100Y
B17: K62I (designed binder)
chain: B1 chain with W4Q, K62I
B18: L27F (designed binder)
chain: B1 chain with W4Q, L27F
B19: M1G (designed binder)
chain: B1 chain with M1G, W4Q
B20: A98S (designed binder)
chain: B1 chain with W4Q, A98S
B21: R97Q (designed binder)
chain: B1 chain with W4Q, R97Q
B22: E73F (designed binder)
chain: B1 chain with W4Q, E73F
B23: E99A (designed binder)
chain: B1 chain with W4Q, E99A
B24: K30N (designed binder)
chain: B1 chain with W4Q, K30N
B25: E16Q (designed binder)
chain: B1 chain with W4Q, E16Q
B26: E33T (designed binder)
chain: B1 chain with W4Q, E33T
B27: Y22F (designed binder)
chain: B1 chain with W4Q, Y22F
B28: L7I (designed binder)
chain: B1 chain with W4Q, L7I
B29: S53F (designed binder)
chain: B1 chain with W4Q, S53F
B30: F20D (designed binder)
chain: B1 chain with W4Q, F20D
B31: E81M (designed binder)
chain: B1 chain with W4Q, E81M
B32: E84C (designed binder)
chain: B1 chain with W4Q, E84C
B33: S51W (designed binder)
chain: B1 chain with W4Q, S51W
B34: S53A (designed binder)
chain: B1 chain with W4Q, S53A
B35: A90H (designed binder)
chain: B1 chain with W4Q, A90H
B36: L39W (designed binder)
chain: B1 chain with W4Q, L39W
B37: Q48C (designed binder)
chain: B1 chain with W4Q, Q48C
B38: A91Y (designed binder)
chain: B1 chain with W4Q, A91Y
B39: H78T (designed binder)
chain: B1 chain with W4Q, H78T
B40: A80P (designed binder)
chain: B1 chain with W4Q, A80P

Changes are numbered by the printed parent chain. Numbers in names are those of the source.

For the assay, the target named is T1, TNFR1 (Homo sapiens, UniProt P19438).
T1 chain: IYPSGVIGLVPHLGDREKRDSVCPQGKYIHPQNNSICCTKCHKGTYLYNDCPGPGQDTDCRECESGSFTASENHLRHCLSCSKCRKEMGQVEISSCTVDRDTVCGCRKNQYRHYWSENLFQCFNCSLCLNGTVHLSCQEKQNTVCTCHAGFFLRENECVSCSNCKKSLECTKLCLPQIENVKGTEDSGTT
Put plainly: yeast display SC50.
With B1, the “apparent Kd (screen)” value amounted to 0.539 nM.
For B2, the “apparent Kd (screen)” value stood at 0.653 nM.
Consider B3, for which the “apparent Kd (screen)” value was 2.25 nM.
Take B4: the “apparent Kd (screen)” value came to 5.84 nM.
Regarding B5, the “apparent Kd (screen)” value was found to be 0.49 nM.
The same measure for B6: 1.27 nM; for B7: 1.27 nM; for B8: 0.956 nM.
In the case of B9, the “apparent Kd (screen)” value was found to be 0.49 nM.
B10: the “apparent Kd (screen)” value is 7.78 nM.
Consider B11, for which the “apparent Kd (screen)” value came out at 1.27 nM.
For B12, the “apparent Kd (screen)” value turned out to be 0.718 nM.
The same measure for B13: 0.539 nM; for B14: 2.48 nM.
In the case of B15, the “apparent Kd (screen)” value came to 0.653 nM.
In the case of B16, the “apparent Kd (screen)” value came to 0.49 nM.
For B17, the “apparent Kd (screen)” value amounted to 0.49 nM.
Take B18: the “apparent Kd (screen)” value amounted to 0.446 nM.
On to B19, for which the “apparent Kd (screen)” value is 0.49 nM.
Take B20: the “apparent Kd (screen)” value stood at 0.653 nM.
As for B21, the “apparent Kd (screen)” value was found to be 0.653 nM.
B22: the “apparent Kd (screen)” value amounted to 0.653 nM.
Turning to B23, the “apparent Kd (screen)” value is 1.27 nM.
Turning to B24, the “apparent Kd (screen)” value is 0.539 nM.
For the molecule B25, the “apparent Kd (screen)” value was found to be 0.653 nM.
With B26, the “apparent Kd (screen)” value was determined as 0.405 nM.
Turning to B27, the “apparent Kd (screen)” value stood at 0.49 nM.
For B28, the “apparent Kd (screen)” value was 2.25 nM.
B29: the “apparent Kd (screen)” value was 0.956 nM.
As to B30, the “apparent Kd (screen)” value was determined as 11.4 nM.
Consider B31, for which the “apparent Kd (screen)” value worked out at 0.593 nM.
On to B32, for which the “apparent Kd (screen)” value turned out to be 0.539 nM.
B33: the “apparent Kd (screen)” value was 0.446 nM.
Take B34: the “apparent Kd (screen)” value was determined as 0.956 nM.
For the molecule B35, the “apparent Kd (screen)” value came out at 0.869 nM.
Regarding B36, the “apparent Kd (screen)” value was found to be 0.869 nM.
As to B37, the “apparent Kd (screen)” value was 0.956 nM.
As for B38, the “apparent Kd (screen)” value was determined as 0.653 nM.
As to B39, the “apparent Kd (screen)” value amounted to 0.869 nM.
B40: the “apparent Kd (screen)” value came out at 0.446 nM.
